Data taken from the nanobody polyreactivity screen of Harvey et al. (2022).

experiment: yeast display, Sf9 membrane polyspecificity reagent, FACS + sequencing; frameworks hold sequencing errors
How it was run: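 Sorting gates, low and high (top ~1%), were placed on anti-HA fluorescence to track expression and on streptavidin fluorescence to track reagent binding. A clone's polyreactivity label is taken from the gate it came out of. The reagent was 10% biotinylated, detergent-solubilized Sf9 membrane, applied for 1 hour at 4 °C to galactose-induced yeast display cells.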

Question: Which “polyreactivity (PSR sort gate)” value does the source give for “QVQLVESGGGLVQAGGSLRLSCAASGRTFRRYAMGWYRQAPGKERELVAAITRGGSTNYADSVKGRFTISRDNAKDTVYLQMNSLKPEDTAVYYCAKDPLATFYGYWGQGTQVTVSS” here?
Answer: high polyreactivity

Question: For “QVQLVESGGGLVQAGGSLRLSCAASGRTFRRYTMGWYRQAPGKERELVAAITTSGGSTYYADSVKGRFTISRDNAKNTVYLQMNSLKPEDTAVYYCAATRRYSGDYWGQGTQVTVSS”, which “polyreactivity (PSR sort gate)” value is on record?
Answer: high polyreactivity

Question: With “QVQLVESGGGLVQAGGSLRLSCAASGRTFRSNAMGWFRQAPGKERELVAAISRTGRTNYADSVKGRFTISRDNAKNTVYLQMNSLKPEDTAVYYCAARGYSVPWQERYDYWGQGTQVTVSS” as the sequence, how does the “polyreactivity (PSR sort gate)” value read?
Answer: high polyreactivity

Question: Which “polyreactivity (PSR sort gate)” value does the source give for “QVQLVESGGGLVQAGGSLRLSCAASGRTFRSNAMGWYRQAPGKERELVAAIRTSGGSTYYADSVKGRFTISRDNAKNTVYLQMNSLKPEDTAVYYCNAELRDLEFDYWGQGTQVTVSS” here?
Answer: low polyreactivity

Question: Which “polyreactivity (PSR sort gate)” value does the source give for “QVQLVESGGGLVQAGGSLRLSCAASGRTFRSNAMGWYRQAPGKERELVAVITRSGGSTDYADSVKGRFTISRDNAKNTVYLQMNSLKPEDTAVYYCAVRRYDYWGQVTQVTVSS” here?
Answer: high polyreactivity

Question: With “QVQLVESGGGLVQAGGSLRLSCAASGRTFRSYAMGWYRQAPGKEREFVAAISRSGASTRYADSVKGRFTISRDNAKNTVYLQMNSLKPEDTAVYYCAKSWRYSINQSYRAGYNYWGQGTQVTVSS” as the sequence, how does the “polyreactivity (PSR sort gate)” value read?
Answer: high polyreactivity

Question: For “QVQLVESGGGLVQAGGSLRLSCAASGRTFRSYAMGWYRQAPGKERELVAAISRGGRTNYADSVKGRFTISRDNAKNTVYLQMNSLKPEDTAVYYCAAAQFRSYWAFDYWGQGTQVTVSS”, which “polyreactivity (PSR sort gate)” value is on record?
Answer: high polyreactivity

Question: Which “polyreactivity (PSR sort gate)” value does the source give for “QVQLVESGGGLVQAGGSLRLSCAASGRTFRSYAMGWYRQAPGKERELVAGISYNGGSTYYADSVKGRFTISRDNAKNTVYLQMNSLKPADTAGYYCAATHHYRLYDYWGQGTQVNVSS” here?
Answer: low polyreactivity

Question: With “QVQLVESGGGLVQAGGSLRLSCAASGRTFRSYTMGWYRQAPGKERELVAAISYNGGSTYYADSVKGRFTISRDNAKNTVYLQMNSLKPEDTAVYYCNKDFDGRFDYWGQGTQVTVSS” as the sequence, how does the “polyreactivity (PSR sort gate)” value read?
Answer: high polyreactivity

Question: For “QVQLVESGGGLVQAGGSLRLSCAASGRTFRTNAMAWYRQAPGKERELVAAITSDGTYYADSVKGRFTISRDNAKNTVYLQMNSLKPEDTAVYYWNVDDRENRDDYWGQGTQVTVSS”, which “polyreactivity (PSR sort gate)” value is on record?
Answer: low polyreactivity

Question: For “QVQLVESGGGLVQAGGSLRLSCAASGRTFRTNAMGWYRQAPGKERELVAAISTGGGITNYADSVKGRFTISRDNAKNTVYLQMNSLKPEDTAVYYCNADIYTWFQIGGYQYDYWGQGTQVTVSS”, which “polyreactivity (PSR sort gate)” value is on record?
Answer: low polyreactivity

Question: With “QVQLVESGGGLVQAGGSLRLSCAASGRTFRTYAMGWYRQAPGKETELVAANSSGGSTNYADSVKGRFTISRDNEKNTVYLQMNSLKPEDTAVYYCATRPTSDFVKRRVYEWLDYWGQGTQVTVSS” as the sequence, how does the “polyreactivity (PSR sort gate)” value read?
Answer: low polyreactivity

Question: Which “polyreactivity (PSR sort gate)” value does the source give for “QVQLVESGGGLVQAGGSLRLSCAASGRTFRTYNMGWYRQAPGKERELVAAISYSGGSTYYADSVKGRFTISRDNAKNTVYLQMNSLKPEDNAVYYCNARRYFWGFDYWGQGTQVNVSS” here?
Answer: high polyreactivity

Question: For “QVQLVESGGGLVQAGGSLRLSCAASGRTFRVYAKGWYRQAPGKERDFVAAITDSGGRKYYADSVKGRFTISRDNAKHTVYVQMNSLKPEDTAVYYCNAYEYFVRYDTYLFRYDYWGQGTQVTVSS”, which “polyreactivity (PSR sort gate)” value is on record?
Answer: low polyreactivity

Question: Which “polyreactivity (PSR sort gate)” value does the source give for “QVQLVESGGGLVQAGGSLRLSCAASGRTFRVYAMGWYRQAPGKEREFVAAISYSGGRTYYADSVKGRFTISRDNAKNTVYLQMNSLKPEDTAVYYCAKRVPYGRGVTGYYWGQGTQVTVSS” here?
Answer: high polyreactivity

Question: Which “polyreactivity (PSR sort gate)” value does the source give for “QVQLVESGGGLVQAGGSLRLSCAASGRTFRVYAMGWYRQAPGKERELVASITRGGGTYADSVKGRFTISRDNAKNTVSLQMNSLKPEDTAVYYCNADSRRRRIHYDYWGQGTQVTVSS” here?
Answer: high polyreactivity

Question: For “QVQLVESGGGLVQAGGSLRLSCAASGRTFRVYSMGWYRQAPGKERDFVAAITDSGGRTYYADSVKGRFTISRDNAKNTVYLQMNCLKPEDTAVYYCNAYQYYERYDTYLFRYDYWGQGTQVTVSS”, which “polyreactivity (PSR sort gate)” value is on record?
Answer: low polyreactivity

Question: Which “polyreactivity (PSR sort gate)” value does the source give for “QVQLVESGGGLVQAGGSLRLSCAASGRTFRWNAMGWYRQAPGKERELVAAISSGGSTYYADSVKGRFTISRDNAKNTVYFQMNSLKPEDTAVYYCNKYYVRAYDTQEYDYWGQGTQVTVSS” here?
Answer: high polyreactivity

Question: With “QVQLVESGGGLVQAGGSLRLSCAASGRTFRWYAMGWYRQAPGKERELVAAISQSGGSTYYADSVKGRFTISRDNAKNSVYLQMNSLKPVDTAVYYCAKVTYRGYYSWGQGTQLTVSS” as the sequence, how does the “polyreactivity (PSR sort gate)” value read?
Answer: high polyreactivity

Question: With “QVQLVESGGGLVQAGGSLRLSCAASGRTFRWYAMGWYRQAPGKERELVADISSVGSTDYADSVKGRFTISRDNAKNTVYLQMNSLKPEDTAVYYCAADFSPRRYHNRSFGYWGQGTQVTVSS” as the sequence, how does the “polyreactivity (PSR sort gate)” value read?
Answer: low polyreactivity

Question: Which “polyreactivity (PSR sort gate)” value does the source give for “QVQLVESGGGLVQAGGSLRLSCAASGRTFRWYAMGWYRQAPGKERELVATITSGGSTNYADSVKGRFTISRDNAKNSVYLQMNSLKPEDTAVYYCAAWSYAYYYRLRYVSHDYWGQGTQVTVSS” here?
Answer: high polyreactivity

Question: For “QVQLVESGGGLVQAGGSLRLSCAASGRTFRWYTLGWYRQAPGKERELVAAITSRGGSTYADSVKGRFTISRDNAKNTVYLQMNSLKPEDTAVYYCNAARTYQYDYWGQGTQVTVSS”, which “polyreactivity (PSR sort gate)” value is on record?
Answer: high polyreactivity

Question: Which “polyreactivity (PSR sort gate)” value does the source give for “QVQLVESGGGLVQAGGSLRLSCAASGRTFRYNAMGWYRQAPGKERELVAAIRYSGGRTYADSVKGRFTISRDNAKNTVYLQMNSLKPEDTAVYYCNADSIRRGYRYDYWGQGTQVTVSS” here?
Answer: high polyreactivity

Question: Which “polyreactivity (PSR sort gate)” value does the source give for “QVQLVESGGGLVQAGGSLRLSCAASGRTFRYNAMGWYRQAPGKERELVAAISASGGSTYYADSVKGRFTISRDNAKNTVYLQMNSLKPEDTAVYYCATYYRVGYDYWGQGTQVTVSS” here?
Answer: high polyreactivity

Question: Which “polyreactivity (PSR sort gate)” value does the source give for “QVQLVESGGGLVQAGGSLRLSCAASGRTFRYNAMGWYRQAPGKERELVAAISGSGGITYYADSVKGRFTISRDNAKNTVYLQMNSLKPEDTAVYYCAAVYRYNSDPDYDYWGQGTQVTVSS” here?
Answer: high polyreactivity

Question: For “QVQLVESGGGLVQAGGSLRLSCAASGRTFRYNAMGWYRQAPGKERELVAAITWSGGSTYYADSVKGRFTISRDNAKNTVYLQMNSLKPEDTAVYYCAKGRRRSHPYDYWGQGTQVTVSS”, which “polyreactivity (PSR sort gate)” value is on record?
Answer: high polyreactivity

Question: Which “polyreactivity (PSR sort gate)” value does the source give for “QVQLVESGGGLVQAGGSLRLSCAASGRTFRYNAMGWYRQAPGKERELVARISRGGSTYADSVKGRFTISRDNAKNTVYLQMNSLKPEDTAVYYCAAYPTKHNQSEYYYWGQGTQVTVSS” here?
Answer: low polyreactivity

Question: For “QVQLVESGGGLVQAGGSLRLSCAASGRTFRYNAMGWYRQAPGKERELVASIRYSSASTYYADSVKGRFTISRDNAKNTVYLQMNSLKPVDTAVYYCAASWYPVFVGYDYWGQGTQVTVSS”, which “polyreactivity (PSR sort gate)” value is on record?
Answer: high polyreactivity

Question: For “QVQLVESGGGLVQAGGSLRLSCAASGRTFRYNTMGWYRQAPGKERELVAAITWSGGRTYYADSVKGRFTISRDNAKNTVYLQMNSLNPEDTAVYYCNADVPYSRSIYGFYYWGQGTQVTVSS”, which “polyreactivity (PSR sort gate)” value is on record?
Answer: high polyreactivity

Question: With “QVQLVESGGGLVQAGGSLRLSCAASGRTFRYYAMGWYRQAPGKEREFVAAITKRGGSTYYADSVKGRFTISRDNAKNTVYLQMNSLKAEDTAVYYCAADTSTWAHTRGYDYWGQGTQVTVSS” as the sequence, how does the “polyreactivity (PSR sort gate)” value read?
Answer: high polyreactivity

Question: For “QVQLVESGGGLVQAGGSLRLSCAASGRTFRYYAMGWYRQAPGKEREFVAAITRSAVSTYYADSVKGRFTISRDNAKNTVYLQMNSLKPEDTAIYYCAVDSSLVKVGFDYWGQGTQVTVSS”, which “polyreactivity (PSR sort gate)” value is on record?
Answer: high polyreactivity

Question: With “QVQLVESGGGLVQAGGSLRLSCAASGRTFRYYAMGWYRQAPGKEREFVASIRRGGGSTYYADSVKGRFTISRDNAKNTVYLQMNSLKPEDTAVYYCAAQPYTLSLFRLNYDYWGQGTQVTVSS” as the sequence, how does the “polyreactivity (PSR sort gate)” value read?
Answer: low polyreactivity

Question: For “QVQLVESGGGLVQAGGSLRLSCAASGRTFRYYAMGWYRQAPGKERELVAAISRGDSTHYADSVKGRFTISRDNAKNTVYLQMNSLKPEDTAVDYCAAYRGRSVDRQPYYCGQGTQVTVSS”, which “polyreactivity (PSR sort gate)” value is on record?
Answer: high polyreactivity

Question: With “QVQLVESGGGLVQAGGSLRLSCAASGRTFRYYAMGWYRQAPGKERELVAAISSGGRTNYADSVKGRFTISRDNAKNTVYLQMNSLKPEDTAVYYCAARNTRFWYQNNLYDYWGQGTQVTVSS” as the sequence, how does the “polyreactivity (PSR sort gate)” value read?
Answer: high polyreactivity

Question: Which “polyreactivity (PSR sort gate)” value does the source give for “QVQLVESGGGLVQAGGSLRLSCAASGRTFRYYAMGWYRQAPGKERELVAAISWNGANTYYADSVKGRFTISRDNAKNTVYLQMNSLKPEDTAVYYCAANYYRWKGYDYWGQGTQVTVSS” here?
Answer: high polyreactivity

Question: Which “polyreactivity (PSR sort gate)” value does the source give for “QVQLVESGGGLVQAGGSLRLSCAASGRTFRYYAMGWYRQAPGKERELVAAITSADSTNYADSVKGRFTISRDNAKNTVYLQMNSLKPEDTAVYYCAAGYVYQAAAKYGRIFWGYDSWGQGSQVTVSS” here?
Answer: low polyreactivity

Question: Which “polyreactivity (PSR sort gate)” value does the source give for “QVQLVESGGGLVQAGGSLRLSCAASGRTFRYYAMGWYRQAPGKERELVATISKSGGSTYYADSVKGRFTISRDNAKNTVYLQMNSLKPVDTAVYYCAAVGPYRWYDYWGQGTQVTVSS” here?
Answer: high polyreactivity

Question: For “QVQLVESGGGLVQAGGSLRLSCAASGRTFRYYDMGWYRQAPGKERELVAAITSRGGSTYYADSVKGRFTISRDNAKNTVYLQMNSLIPEDTAVYDCNAYPVQIFYLGNRQYNYWGHGTQVTVSS”, which “polyreactivity (PSR sort gate)” value is on record?
Answer: high polyreactivity

Question: For “QVQLVESGGGLVQAGGSLRLSCAASGRTFRYYDMGWYRQATGKERELVARISISGAGTYYADSVKGRFTISRDNAKNTVYLQINSLKPEDTAVYYCAADLFWWQKTNSGGDYWGQGTQVTVSS”, which “polyreactivity (PSR sort gate)” value is on record?
Answer: low polyreactivity

Question: With “QVQLVESGGGLVQAGGSLRLSCAASGRTFRYYGMGWYRQAPGKERELVAAISWSGGSTYYADSVKGRYTISRDNAKNSVYLQMNSLKPEDTAVYYCAADGQYYYGFDYWGQGTQVTVSS” as the sequence, how does the “polyreactivity (PSR sort gate)” value read?
Answer: high polyreactivity

Question: With “QVQLVESGGGLVQAGGSLRLSCAASGRTFRYYTMGWYRQAPGKERELVAAITVGSRTNYADSEKGRFTISRDNAKNTVYFQMNSLKAEDTAVYYCARRSYYQYRYDYWGQGTQVTVSS” as the sequence, how does the “polyreactivity (PSR sort gate)” value read?
Answer: high polyreactivity

Question: With “QVQLVESGGGLVQAGGSLRLSCAASGRTFRYYVMGWYRQAPGKERELVARISWSGARTYYADSVKGRFTISRDHAKNTVYLQMNSLKPEDTAVYYCAADNPYYYRRDYWGQGTQVTVSS” as the sequence, how does the “polyreactivity (PSR sort gate)” value read?
Answer: low polyreactivity

Question: With “QVQLVESGGGLVQAGGSLRLSCAASGRTFSAYAMGWSRQAPGKERELVAAISRSGGRTYYADSVKGRFTISRDNAKNTVYLQMNSLKPEDTAVYYCAAGSNIWGQGTQVTVSS” as the sequence, how does the “polyreactivity (PSR sort gate)” value read?
Answer: high polyreactivity
